Source: the DeepSol protein solubility set

Experiment: soluble on expression in E. coli; label from the status in PepcDB or PDB records

| Sequence | soluble on expression in E. coli |
| --- | --- |
| MSDKPEDENTNENPGRRRFLGGMAALGAGVTLSGYVSAHERPPAEAEKHHLVGPALDRALRENVKTVVVIYAENRSFNNLFGNFPGVQKPLSSVRPADYVQRDRNGTLLDKLPPAWGGVLQVGPQTVDGVTYPVGVQFQENLPNAPFPLKGPNAEDLPLSLVTRDLWHVFYQNQMQINDGKNDRFVAWADAGGLTMGNYAQTQYSLRLWDVAKEFVLCDNFFQGAFGGSFLNHQYLISATAPIYPNAADSPAKSQIASLQSMNPLDSRLKPLDKSPASAMEGPPQFGPSAITPDNYAVNTLAPPYWPTWLRDPQNPDYSKPDLANVLVPQSHEHIGDKLSKRNVDWAWYAGAWQVTLDEFKDSTGIPKIPNFQYHHQPFNYFKQQGPQNPEERKKRLRDGGLGDESSTNRFLADAEAGKLPAVAFYKPQGNLNMHAGYADVASGDRHIDRVIKVLRNSPQWDNMVIVVTVDENGGWWDHVAPPKGDRFGPGTRIPALVISPFARKGKVDHTVYDTASILRLITRVHGLEKLDGLKRRDEAMIARGQAPMGDLTNALHFPALEHHHHHH | soluble |
| MSDNALTSSRRFGGIARLYGDSALAHFSQAHVCVVGVGGVGSWAVEALARTGIGRLTLIDLDNVAESNVNRQLHALTGDFGKAKVTALRERITQINPQCEVFEIEDFVTEDNLPEYFGKGFDFVIDAIDQVRVKAAMAAYFVERKQPFVLSGGAGGQKNPALIQTADLSRVTHDPLLANLRYTLRKRYGFSRDTKANMRVPCVYSTENIVPPQSREACSADAAPQGLSCAGYGASMLVTASFGLYCAQAAVEHIADKKLEHHHHHH | soluble |
| MSDNAQLSGLCDRFRGFYPVVIDVETAGFNAKTDALLEIAAITLKMDEQGWLMPDMTLHFHVEPFAGANLQPEALAFNGIDPSNPLRGAVSEYEALHAIFKMVRKGIKDSGCSRAIMVAHNATFDHSFMMAAAERASLKRNPFHPFVTFDTAALSGLALGQTVLSKACLAAGMEFDGEKAHSALYDTERTAVLFCEIVNRWKRLGGWPLPLPTDK | not soluble |
| MSDNDTIVAQATPPGRGGVGILRISGFKAREVAETVLGKLPKPRYADYLPFKDADGSVLDQGIALWFPGPNSFTGEDVLELQGHGGPVILDLLLKRILTIPGLRIARPGEFSERAFLNDKLDLAQAEAIADLIDASSEQAARSALNSLQGAFSARVNHLVEALTHLRIYVEAAIDFPDEEIDFLSDGKIEAQLNDVIADLDAVRAEARQGSLLREGMKVVIAGRPNAGKSSLLNALAGREAAIVTDIAGTTRDVLREHIHIDGMPLHIIDTAGLREASDEVERIGIERAWQEIEQADRVLFMVDGTTTDAVDPAEIWPEFIARLPAKLPITVVRNKADITGETLGMSEVNGHALIRLSARTGEGVDVLRNHLKQSMGFDTNMEGGFLARRRHLQALEQAAEHLQQGKAQLLGAWAGELLAEELRLAQQNLSEITGEFTSDDLLGRIFSSFCIGK | soluble |
| MSDPDLELASRREIYQRIADTPGVHFRALLDELKYAQGTLQYQLRWLADKGLIDVSDDGKYTRYYPAAEFDEADRTVMNALRREYSRRILAHLLTDSPLSTTELSERLDKAQSTVSWHLSKLAEADLVTKERDGRSVVYEVSDPDRVKYLYTVHRRSFTDKVVDRILGLWDSY | not soluble |
| MSDPRYQIDVSVVTRYLKEQSDPENSRFAFAYTITVQNNGSLSAKLLSRHWLITNGDGEVEEVRGAGVVGQQPNIDPGQSHTYSSGAVISTRVGTMQGSYQMFAEDGKRFDAEIAPFRLAVPGALHLEHHHHHH | soluble |
| MSDQPRPTVIITGASSGVGLYATKALANRGWHVIMACRNLEKAEQAAKNLQIPPEAYTILHLDLSSLASVRGFVESFRALNRPLRALVCNAAVYYPLLKEPIYSVDGYEITVATNHLGHFLLINLLLEDLKNSPESDKRLVILGTVTANRKELGGKIPIPAPPDLGNLEGFEKGFKKPIAMINGKPFKSGKAYKDSKLCNMLTARELHRRFHESTGIVFNSLYPGCVADTPLFRHHFPLFQKLFPLFQKKITGGYVSQELAGERVAMVVADPEFRQSGVHWSWGLEHHHHHH | soluble |
| MSDSCDGVECGPGKACRMLGGRPRCECAPDCSGLPARLQVCGSDGATYRDECELRAARCRGHPDLSVMYRGRCRK | soluble |
| MSDSRYKVDVSVVTRFLAEQSQPEQNRFAFAYTITVHNNGELPAKLLSRHWIITDGDGHVEEVRGEGVVGQQPLIKVGQSHTYSSGTVMTTQVGNMQGSYQMLAEDGKRFDAVIEPFRLAVPGSLHLEHHHHHH | soluble |
| MSDSTPKTPRGFVVHTAPVGLADDGRDDFTVLASTAPATVSAVFTRSRFAGPSVVLCREAVADGQARGVVVLARNANVATGLEGEENAREVREAVARALGLPEGEMLIASTGVIGRQYPMESIREHLKTLEWPAGEGGFDRAARAIMTTDTRPKEVRVSVGGATLVGIAKGVGMLEPDMATLLTFFATDARLDPAEQDRLFRRVMDRTFNAVSIDTDTSTSDTAVLFANGLAGEVDAGEFEEALHTAALALVKDIASDGEGAAKLIEVQVTGARDDAQAKRVGKTVVNSPLVKTAVHGCDPNWGRVAMAIGKCSDDTDIDQERVTIRFGEVEVYPPKARGDQADDALRAAVAEHLRGDEVVIGIDLAIADGAFTVYGCDLTEGYVRLNSEYTT | soluble |
| MSDTNYAVIYDLHSHTTASDGCLTPEALVHRAVEMRVGTLAITDHDTTAAIAPAREEISRSGLALNLIPGVEISTVWENHEIHIVGLNIDITHPLMCEFLAQQTERRNQRAQLIAERLEKAQIPGALEGAQRLAQGGAVTRGHFARFLVECGKASSMADVFKKYLARGKTGYVPPQWCTIEQAIDVIHHSGGKAVLAHPGRYNLSAKWLKRLVAHFAEHHGDAMEVAQCQQSPNERTQLAALARQHHLWASQGSDFHQPCPWIELGRKLWLPAGVEGVWQLWEQPQNTTERELLEHHHHHH | not soluble |
| MSDTTELVDLAVIFPDLEIELKYACADNITGKAIYQQARCLLHKDAITALAKSISIAQLSGLQLVIYDAYRPQQAQAMLWQACPDPQYVVDVTVGSNHSRGTAIDLTLRDEHGNILDMGAGFDEMHERSHAYHPSVPPAAQRNRLLLNAIMTGGGFVGISSEWWHFELPQAASYPLLADQFSCFISPGTQHVS | not soluble |
| MSEADQALVGPKADEPSPPAEEKDEGGGKEAAADAAPGPSASFRLMVTRREPAVKLQYAVSGLEPLSWSEDHRVSVSTARSVAVLELICDVHNPGQDLVIHRTSVPAPLNSCLLKVGSKTEVAECKEKFASSKDPTISQTFMLDRMFNPEGKALPPMRGFKYTSWSPMGCDANGRCLLAALTMDNRLTVQVNLNRLQWVQLVDLTEIYGDRLYETSYRLSKNEAPEGNLGDFAEFQRRHSMQTPVRMEWSSICTTQQVKHNNECRDVSS | not soluble |
| MSEAESVVIKGGNKDKILPLEAEEKKPIKEEKNKAVILSNWIIKYAPIVYFHPDEKCFPITVEEFLECTDVMNEKNEKFCDGKEILSGSFKDALGNQKFYLKITDTSVREGNLNSAKCYVYVRKRNKGRYLDLQYFFFYGYNGPTINIHLNKNKKNYSTSNIGENYGNWEHVTVVIDSTDGSILGAIFDQHGKSCFYDIDQLEYEKGHIVVYSALSSHASYPSAGKSVTEYDSQELGVPPVSVGIVKFELHDATDKGRRWDTSLVCQLVSYNITGTEVEEPKWMAFNGRWGKPYDLTDKDISILYQISRLPAGGKVVDSLLWRFIPYSKKNINQANGIKSKDDFNIIILEHHHHHH | not soluble |
| MSEAKDNGSRDEVLVPHKNCRKNTTVPGKKGEEKSLAPVFAEKLISPSRRGAKLKDRESHQENEDRNSELDQDEEDKESFCRGFPMSGCELETSCCVCHSTALGERFC | soluble |
| MSEDRSSNGHKSWLDKITQAFAHEPRNRQELLELLRDAHDNKLLDSEALSIVEGAIQVADLQVRDIMVPRSQMMSIRSTQTPKEFLPAIIEAAHSRYPVVGESLDDVMGVLLAKDLLPLILHNDERPFDIKELLRPATFVPESKRLNVLLREFRANRNHMAIVIDEYGGVAGLVTIEDVLEQIVGDIEDEHDVEEDSYIKPLPSGDFIVKALTPVDAFNDFFGSEFSDEEFDTVGGLVMSAFGHLPKRNEVVELGEFRFRVLNADSRRVHLLRLSPLQN | soluble |
